Reference: the nanobody polyreactivity screen of Harvey et al. (2022)

Test: yeast display, Sf9 membrane polyspecificity reagent, FACS + sequencing; frameworks hold sequencing errors
Outline: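 A nanobody's polyreactivity label depends on the gate it was sorted from. Yeast display cells were stained with 10% biotinylated, detergent-solubilized Sf9 membrane reagent for 1 hour at 4 °C, enriched on streptavidin microbeads and sorted by FACS. The low and high (top ~1%) gates were set on anti-HA fluorescence for expression and streptavidin fluorescence for reagent binding.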

Question: For “QVQLVESGGGLVQAGGSLRLSCAASGSIFSFYAMGWYRQAPGKERELVASITRRGGSTSYADSVKGRFTISRDNAKNTVYLQMNSLKPEDTAVYYCASESKFISVLRVGYYYVKFDYWGQGTQVTVSS”, which “polyreactivity (PSR sort gate)” value is on record?
Answer: The value was “high polyreactivity”.

Question: For “QVQLVESGGGLVQAGGSLRLSCAASGRTFKTYTMGWYRQEPGKERELVAVISSGGGSTNYADSVKGRFTISRDKAKNTVNLQMNSRKPEDTAVYYCAARKPGRPKYRYDYWGQGSQVTVSS”, which “polyreactivity (PSR sort gate)” value is on record?
Answer: The value was “low polyreactivity”.

Question: Which “polyreactivity (PSR sort gate)” value does the source give for “QVQLVESGGGLVQAGGSLRLSCAATGIIFSWYAMGWYRQAPVKERELVATISSGAHTYYADSVKGRFTISRDNAKNTVYLQMNRLKPEDTAVYYCGAANEFGVVWAQFDYWGQGPQVTVSS” here?
Answer: The value was “low polyreactivity”.

Question: With “QVHLVESGGGLVQAGGSLRLSCAASGFTFFYYAMGWYRPAPGKERELVAAINSGDNTNYADSVKGRFTISRDNAKNTVYLLMNSLIPEDTAVYYCAAQDYARGVVPGRRAMGYWGQGTQVSVSS” as the sequence, how does the “polyreactivity (PSR sort gate)” value read?
Answer: The value was “high polyreactivity”.

Question: Which “polyreactivity (PSR sort gate)” value does the source give for “QVQLVESGGGLVHAGGSLRLSCAASRSTFALNAMGWYRPAPGKERELVAAISRRGGSTYYADSVKGRFTISRDNAKNSVYLQMNSLKPEDTAVYYCAARYKRFTRFDYWGQGTQVTVSS” here?
Answer: Its value is “high polyreactivity”.

Question: For “QVQLVESGGGLVQAGGSLRLSCAASGRTSWYYAMGWYRQAPGKERELVAAISVRAGSTYYADSVKGRFTISRDNAKNTVYLQMNSLKPEDTAVYYCAREYSPYTSRRDYWGQGTQVTVSS”, which “polyreactivity (PSR sort gate)” value is on record?
Answer: The value was “high polyreactivity”.

Question: For “QVQLVESGGGLVQAGGSLRLSCAASGSTFVIYDMGWYRQAPGKERELVAAISYSGGSTYYADSVKGRFTISRDNAKNTVYLQMNSLKPEDTAVYYCAAEGRSDWGGDDYYWGQGTQVTVSS”, which “polyreactivity (PSR sort gate)” value is on record?
Answer: Its value is “low polyreactivity”.

Question: With “QVQLVESGGGLVQAGGSLRLSCAASGLTFVDYAMGWYRQAPGKERELVASIDYSGSSTYYADSVKGRFTISRDNAKNTVYLQMNSLKPEDTAVYYCAATDSGEYWGQGTQVTVSS” as the sequence, how does the “polyreactivity (PSR sort gate)” value read?
Answer: Its value is “low polyreactivity”.

Question: For “QVQLVESGGGLVQAGGSLRLSCAASGFTFRVNAMGWYRQAPGKERELVAASSSGGRTYYADSVKGRFTISRDNAKNTVYLQMNSLKPEDTAVYYCNAGRVRHGNDYWGQGTQVTVSS”, which “polyreactivity (PSR sort gate)” value is on record?
Answer: The value was “high polyreactivity”.

Question: Which “polyreactivity (PSR sort gate)” value does the source give for “QDQHVESGGGLVQAGGSLRLSCAASGGTFVPYAMGWYRQAPGKERELVARISKRGGTTYYADSVKGRFTISRDIAKNTVYLQMNSLKPEDTAVYYCAAGLPARGYYWGQGTQVTVSS” here?
Answer: The value was “high polyreactivity”.

Question: For “QVQLVESGGGLVQAGGSLRLSCAASGFIFDINAIGWYRQAPGKERELVAAISYSGGSTYYADSVKGRFTISRDNAKNTVYLQMNSLKPEDTAVYYCAADSGPDSDEGDYWGQGTQVTVSS”, which “polyreactivity (PSR sort gate)” value is on record?
Answer: Its value is “low polyreactivity”.

Question: Which “polyreactivity (PSR sort gate)” value does the source give for “QVQLVESGGGLVQAGGSLRLSCAASGITFQDYAMGWYRQAPGKERELVAAISKSGGSTYYADSVKGRFTISRDNAKNTVYLQMNSLKPEDTAVYYCAAYAQKRYYWGQGTQVTVSS” here?
Answer: The value was “high polyreactivity”.

Question: With “QVQLVESGGGLVQAGGSLRLSCAASGSTFAKNAMGWYSQAPGIDRELVAAISSGGSTYYADSVKGRFTIARDNAKNTVYLQMNSLKPEDTAVYYCAASWIQGYRTYGYWGQGTQVTVSS” as the sequence, how does the “polyreactivity (PSR sort gate)” value read?
Answer: The value was “high polyreactivity”.

Question: With “QVQLVESGGGLVQAGGSLRLSCAASGRISYYYLGWYRQAPGKERELVAAISWNGGRTYYADSVKGRFTISRDNAKNTVYLQMNSLKPEDTAVYYCAAKTGYYPYGYWGQGTQVTVSS” as the sequence, how does the “polyreactivity (PSR sort gate)” value read?
Answer: Its value is “high polyreactivity”.

Question: Which “polyreactivity (PSR sort gate)” value does the source give for “QVQLVESGGGLVQAGGSLRLSCAASGLTFARTAKGWYRQAPGKERALVAAISSRGGSTYYADSVKGRFTISRDIANNTVYLQMNSLKPEDTAVYYCATSQVLRRDRYDYWGQGTQVTVSS” here?
Answer: Its value is “high polyreactivity”.

Question: For “QVQLVESGGGIVQAGGRLRLSCAASGITFRFYAMGWYRQAPGKERELVAVISRGGGTTYYADSVKGRFTISRDNEKNTVYLEMNSLKPEDTEVFYCNAVFAWYRSDEYDYWGQGTLVTVSS”, which “polyreactivity (PSR sort gate)” value is on record?
Answer: Its value is “high polyreactivity”.

Question: For “QVQLVDSGGGLVQAGGSLRLSAASGSTLSGNTMGWYRQAPGKERELVAAINDSGGSTYYADSVKGRFTISRDNAKNTVYLQMNSLKPEDTAVYYCAAETGYAFDYWGQGTQVTVSS”, which “polyreactivity (PSR sort gate)” value is on record?
Answer: Its value is “low polyreactivity”.

Question: Which “polyreactivity (PSR sort gate)” value does the source give for “QVQLVESGGGLVQAGGSLRLSCAASGSISPQNVMGWYRQAPGKERELVAAITGGGYTNYADSVKGRFTISRDNAKKTVYLQMNSLKPEDTAVYYCNADYFQDRLDYWGQGTQVTVSS” here?
Answer: Its value is “low polyreactivity”.

Question: For “QVQLLETGGGLVQAGGSLRLSCAASGLIFYYNVMGWYIQAPGKERELVASISYSSTRTYYADSVKGRFTISRDNAKNTVYLQMNSLKPEDTAVYYCNAVIRNSWIRGYWGQGTQVTVSS”, which “polyreactivity (PSR sort gate)” value is on record?
Answer: The value was “low polyreactivity”.

Question: Which “polyreactivity (PSR sort gate)” value does the source give for “QVQLVESGGGLVQAGGSLRLSCAASGRTIRYYSMGWYRQAPGKESELVAAINYSGGRTYYADSVKGRFTISRDNSMNTVYLQLNSLKPEDTAVYYCNAVLGPYFPKFDYWGQGTQVTVSS” here?
Answer: Its value is “high polyreactivity”.

Question: For “QVQLVESGGGLVQAGGSLRLSCAASGLIFADYTMGWYRQAPGKERELVAVITDGDSTYYADSVKGRFTISRDNAKNTVYLQMNSLKPEDTAVYYCAAELDGSNYTLDYWGLGTQVTVSS”, which “polyreactivity (PSR sort gate)” value is on record?
Answer: Its value is “low polyreactivity”.

Question: Which “polyreactivity (PSR sort gate)” value does the source give for “QVQLVETGGCLVQAGGSLPLSCAASGRTFRPYAKGLYRPAPGKERELVAAITRGGSTKYADSVKGRFTISRDNAKNTVYLQMNSLKPEDTAVYYCAPDYSVYHRLFDYWGQGTQVTVSS” here?
Answer: Its value is “high polyreactivity”.

Question: For “QVQLVESGGGLVQAGGSLRLSCAASGITFWRTAMGWYRQAPGKEREFVAAITWTGGRTYYADSVKGRFTISRDNAQNTVYLQMNSLKPEDTAVYYCATGQSRDYYWGQGTQGTVSS”, which “polyreactivity (PSR sort gate)” value is on record?
Answer: The value was “high polyreactivity”.

Question: For “QVQLVESGGGLVQAGGSLRLSCAASGSTFDGYVMGWYRQAPGKEREFVAAISWSGGSTYYADSVKGRFTISRDNAKNTVYLQMNSLKPEDTAVYYCAARVRRQHGYWGQGTQVTVSS”, which “polyreactivity (PSR sort gate)” value is on record?
Answer: The value was “high polyreactivity”.

Question: With “QVQLVESGGGLVQAGGSLRLSCAASGFTFEYNDMGWYRQAPGKERELVASISYDSDSTYYAVSVKGRFTISRDNAKNTVYLQMNSLKPEDTAVYYCNAGSSYHEYGYWGQGTQVTVSS” as the sequence, how does the “polyreactivity (PSR sort gate)” value read?
Answer: The value was “high polyreactivity”.

Question: For “QVQLVESGGGLVQAGGSLRLSCAASGSTFRINAMGWYRQAPGKERELVADINSGGNTTYADSVKGRFTISRDNAKNTVYLQMNSLKPEDTAVYYCNAPYSFFWQQMNYWGQGTQVTVSS”, which “polyreactivity (PSR sort gate)” value is on record?
Answer: Its value is “low polyreactivity”.

Question: For “QVQVVESGGGLVQAGGSLRLSCAASGSTFFFYAMGWYIHAPGKERELVAAISSTGRKYYADSVKGRFTISRDNAKNTVYLQMNSLTPEDTAVYYCAARIYSGYSYWGQCTQVTVSS”, which “polyreactivity (PSR sort gate)” value is on record?
Answer: Its value is “high polyreactivity”.

Question: With “QVQLVESGGGLVQAGGSLRLSCAASGRTFAWYTMGWSRQEPGKERELVAAISGSGGSTYYADSVKGRFTISRDNAKNTVYLQMNSLKPEDTAVYYCARRVDSYYGHTRYYYWGQGTQVTVSS” as the sequence, how does the “polyreactivity (PSR sort gate)” value read?
Answer: Its value is “high polyreactivity”.

Question: Which “polyreactivity (PSR sort gate)” value does the source give for “QVQLVESGGGLVQAGGSLRLSCAASGITFYYNAMGWYRQAPGKERELVAAISDGSSTNYADSVKGRFTISRDNAKNTVYLQMNSLKPEDTAVYYCNASWSFPVSGYESRSPGKLDYWGQGTQVTVYS” here?
Answer: Its value is “low polyreactivity”.

Question: For “QVQLVESGGGLVQAGGSLRLSCAASGITIYGYAMGWYRQAPGKERELVAAITRSGGGTYYADSVKGRFTISRDNEKNTVYLQMISLKPEDTAVYYCAADSYSQYTMDYWGQGTQVTVSS”, which “polyreactivity (PSR sort gate)” value is on record?
Answer: The value was “high polyreactivity”.

Question: Which “polyreactivity (PSR sort gate)” value does the source give for “QVQLVESGGGLVQAGGSLRLSCAASGFIFPRYAKGWYRQAPGKERELVAAISKSGGRTYYADSEKGGFTISRDYAKNTFYLQMNSLKPEDTAVYYCADGRISRFSRYYYWGQGTHVTVSS” here?
Answer: Its value is “high polyreactivity”.

Question: Which “polyreactivity (PSR sort gate)” value does the source give for “QFQLVESGGGLVQAGGSLRLSCAASGSIFVLYAMGWYRQAPGKERELVAAITSAGSTYYADSVKGRFTISRDNAKNTVYLQMNSLKPEDTAVYYCAAGFYGYARHTWYNDWGQGTQVTVSS” here?
Answer: Its value is “high polyreactivity”.
